# Target: Epstein-Barr Nuclear Antigen 1 (EBNA1), wild type (Epstein-Barr virus) (UniProt P03211)
substance,measurement,value
"Epstein-Barr Nuclear Antigen 1 (EBNA1), wild type (from UniProt P03211 1-641) (natural protein)","transactivation of TKp-luciferase reporters with one to 20 EBNA1-binding sites, 20 sites over a single site, C33a cells",150 fold
